The values that follow come from patent publication US20200283773.

The series deals with nucleolin on surface of HCT116 p53-/- cells (Homo sapiens) (UniProt P19338). Nature of the series: flow. Particulars: 2'-F pyrimidines, unit inferred.
Sequence of nucleolin on surface of HCT116 p53-/- cells (Homo sapiens) (P19338 2-710): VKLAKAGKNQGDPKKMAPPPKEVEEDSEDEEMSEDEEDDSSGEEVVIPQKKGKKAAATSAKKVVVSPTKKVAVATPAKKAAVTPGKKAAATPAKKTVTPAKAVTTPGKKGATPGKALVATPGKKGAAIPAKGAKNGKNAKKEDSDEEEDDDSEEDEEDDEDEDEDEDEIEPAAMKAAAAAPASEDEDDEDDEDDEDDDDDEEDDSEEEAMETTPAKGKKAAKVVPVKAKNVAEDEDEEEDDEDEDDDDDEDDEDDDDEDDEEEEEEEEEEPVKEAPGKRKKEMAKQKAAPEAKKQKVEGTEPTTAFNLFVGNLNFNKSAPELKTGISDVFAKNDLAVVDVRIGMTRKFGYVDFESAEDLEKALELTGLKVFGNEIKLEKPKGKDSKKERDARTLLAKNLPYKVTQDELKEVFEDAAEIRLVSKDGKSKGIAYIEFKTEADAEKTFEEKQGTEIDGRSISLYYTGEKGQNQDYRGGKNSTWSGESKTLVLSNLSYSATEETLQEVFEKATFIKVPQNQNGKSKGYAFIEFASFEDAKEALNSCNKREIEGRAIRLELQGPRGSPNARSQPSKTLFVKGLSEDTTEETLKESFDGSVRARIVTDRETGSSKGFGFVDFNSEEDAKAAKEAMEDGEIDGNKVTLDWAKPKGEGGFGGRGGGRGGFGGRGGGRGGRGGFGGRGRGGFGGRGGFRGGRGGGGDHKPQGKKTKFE

The Kd is the concentration at which binding is half-saturated. A high value points to lower affinity. “GGAAGAGGGAUGGGCACGGUCCAGCGCUAACUGUACCUGCUGUGCCACCCACC [Ev5]”: under “DL650-labeled Ev5, HCT116 p53-/- cells, Bmax 2.064”, the Kd was 50.7 nM.
In the case of “GGGAGAGAGGAAGAGGGAUGGGCACGGUCCAGCGCUAACUGUACCUGCUGUGCCACCCACCG [Ev3]”, the Kd (DL650-labeled Ev3, HCT116 p53-/- cells, Bmax 3.214) amounted to 119 nM.
